Reference: PMC3650583, “Dissection of Pilus Tip Assembly by the FimD Usher Monomer” (Journal of Molecular Biology, 2013)
Positions count from the first letter of the chain named. Names may count otherwise.

How the values were obtained:
[1] = molecular target: FimF (Escherichia coli (uropathogenic)) (UniProt P08189); test: donor strand exchange (DSE) assay, SDS-PAGE of the SDS-stable subunit:subunit product; 20 °C; 500 nM usher complex (acceptor subunit last in FimD:FimC:...) and 5 μM chaperone:subunit complex (donor), one subunit labelled with Alexa 647; quenched with HCl (quench flow for the fast reactions); fitted to Eq. (1) with KinTek Explorer
[2] = molecular target: FimH (Escherichia coli (uropathogenic)) (UniProt P08191); test: as above
[3] = molecular target: FimG (Escherichia coli (uropathogenic)) (UniProt P08190); test: as above
[4] = molecular target: FimD:FimC:FimH complex (Escherichia coli (uropathogenic)) (UniProt P30130); test: AUC; sedimentation velocity of purified FimD:FimC:FimH at the higher concentrations (> 1 μM, up to 4.3 μM); 20 °C, 42,000 rpm, absorbance optics; 50 mM Tris pH 8.0, 150 mM NaCl, 1 mM EDTA, 0.05% DDM; c(s) by SedFit; Kd of usher dimerisation (dimer to monomers) estimated by integrating the monomer and dimer peaks at 4.3 μM
[5] = molecular target: the molecule itself; test: donor strand exchange (DSE) assay, SDS-PAGE of the SDS-stable subunit:subunit product; spontaneous (non-usher mediated) formation of FimG polymers from FimC:FimG during the slow reactions
FimF [6] = molecular target: T1, FimF (Escherichia coli (uropathogenic), UniProt P08189 21-176); test: donor strand exchange (DSE) assay, SDS-PAGE of the SDS-stable subunit:subunit product; 20 °C; FimD:FimC:FimH:FimG and FimC:FimF both unlabelled; silver staining and densitometry of the FimH:FimG:FimF product; conditions: both partners purified
T1 construct: also called unlabelled FimF; FimC:FimF (as chaperone complex)
T1 sequence: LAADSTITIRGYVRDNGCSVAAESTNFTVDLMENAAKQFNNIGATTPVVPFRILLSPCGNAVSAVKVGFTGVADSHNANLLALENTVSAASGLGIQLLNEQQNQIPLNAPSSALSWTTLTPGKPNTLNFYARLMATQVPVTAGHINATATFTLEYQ

[7] = molecular target: FimF^Q99C[A647] (Escherichia coli (uropathogenic)); test: donor strand exchange (DSE) assay, SDS-PAGE of the SDS-stable subunit:subunit product; 20 °C; 500 nM usher complex (acceptor subunit last in FimD:FimC:...) and 5 μM chaperone:subunit complex (donor), one subunit labelled with Alexa 647; quenched with HCl (quench flow for the fast reactions); fitted to Eq. (1) with KinTek Explorer
FimF [8] = molecular target: T1, FimF; test: as above; conditions: both partners purified
[9] = molecular target: the molecule itself; test: AUC; sedimentation velocity of FimD alone at 5 μM and 2 μM; 20 °C, 42,000 rpm; 50 mM Tris pH 8.0, 150 mM NaCl, 1 mM EDTA, 0.05% DDM; monomer to dimer

Molecule: FimF^Q99C[A647] (natural protein)
- kDSE (rate of donor strand exchange, 20 °C) [1]: 0.00598 s⁻¹
- kDSE (rate of donor strand exchange, 20 °C) [2]: 0.972 s⁻¹
- kDSE (rate of donor strand exchange, 20 °C) [3]: 0.0527 s⁻¹

Molecule: FimD:FimC:FimH complex (from UniProt P30130;P31697;P08191)
- Kd [4]: 20 µM

B1: FimG (natural protein)
chain: ADVTITVNGKVVAKPCTVSTTNATVDLGDLYSFSLMSAGAASAWHDVALELTNCPVGTSRVTASFSGAADSTGYYKNQGTAQNIQLELQDDSGNTLNTGATKTVQVDDSSQSAHFPLQVRALTVNGGATQGTIQAVISITYTYS
notes: also called unlabelled FimG; FimC:FimG (as chaperone complex)
- binding result [5]: binds
- binding result (FimF [6]): binds
- kDSE (rate of donor strand exchange, 20 °C) [7]: 0.00543 s⁻¹

B2: FimG^S92C[A647] (natural protein)
chain: B1 chain with S92C
modifications: fluorescent Alexa 647 label at position 92 (on S92C)
- binding result (FimF [8]): binds

B3: FimD usher (natural protein)
chain: DLYFNPRFLADDPQAVADLSRFENGQELPPGTYRVDIYLNNGYMATRDVTFNTGDSEQGIVPCLTRAQLASMGLNTASVAGMNLLADDACVPLTTMVQDATAHLDVGQQRLNLTIPQAFMSNRARGYIPPELWDPGINAGLLNYNFSGNSVQNRIGGNSHYAYLNLQSGLNIGAWRLRDNTTWSYNSSDRSSGSKNKWQHINTWLERDIIPLRSRLTLGDGYTQGDIFDGINFRGAQLASDDNMLPDSQRGFAPVIHGIARGTAQVTIKQNGYDIYNSTVPPGPFTINDIYAAGNSGDLQVTIKEADGSTQIFTVPYSSVPLLQREGHTRYSITAGEYRSGNAQQEKTRFFQSTLLHGLPAGWTIYGGTQLADRYRAFNFGIGKNMGALGALSVDMTQANSTLPDDSQHDGQSVRFLYNKSLNESGTNIQLVGYRYSTSGYFNFADTTYSRMNGYNIETQDGVIQVKPKFTDYYNLAYNKRGKLQLTVTQQLGRTSTLYLSGSHQTYWGTSNVDEQFQAGLNTAFEDINWTLSYSLTKNAWQKGRDQMLALNVNIPFSHWLRSDSKSQWRHASASYSMSHDLNGRMTNLAGVYGTLLEDNNLSYSVQTGYAGGGDGNSGSTGYATLNYRGGYGNANIGYSHSDDIKQLYYGVSGGVLAHANGVTLGQPLNDTVVLVKAPGAKDAKVENQTGVRTDWRGYAVLPYATEYRENRVALDTNTLADNVDLDNAVANVVPTRGAIVRAEFKARVGIKLLMTLTHNNKPLPFGAMVTSESSQSSGIVADNGQVYLSGMPLAGKVQVKWGEEENAHCVANYQLPPESQQQLLTQLSAECR
notes: also called apo FimD; the usher; source: in 0.05% DDM
- stoichiometry N [9]: 2
